Experimental data taken from patent US12351648B2, “Methods of inhibiting MASP-2 for the treatment and/or prevention of coronavirus-induced acute respiratory distress syndrome” (priority 2020, dated 2025).

Target: human MASP-2 (Homo sapiens (Human), UniProt O00187)
Experiment: C3 assay: inhibition of lectin pathway C3 convertase formation in human serum (scFv clones)
Assay type: biochemical
Conditions: read-out: 1% human serum C3 assay (IC50 nM), scFv format
Description: A functional assay that measures inhibition of lectin pathway C3 convertase formation was used to evaluate the “blocking activity” of the MASP-2 scFv candidate clones. MASP-2 serine protease activity is required in order to generate the two protein components (C4b, C2a) that comprise the lectin pathway C3 convertase. Therefore, a MASP-2 scFv that inhibits MASP-2 functional activity (i.e., a blocking MASP-2 scFv), will inhibit de novo formation of lectin pathway C3 convertase. […]
The scFv clones were each tested in triplicate at the concentration of 2 μg/mL. […] C3c formation was monitored in the presence and absence of the scFv/IgG clones. […]
Normal human serum was diluted to 0.5% in CaMgGVB buffer, and scFv clones or the OMS100 Fab2 positive control were added in triplicates at 0.01 μg/mL; 1 μg/mL (only OMS100 control) and 10 μg/mL to this buffer and preincubated 45 minutes on ice before addition to the blocked ELISA plate. […] C3b deposition was detected with a Rabbit α-Mouse C3c antibody followed by Goat α-Rabbit H1RP. […] The background was determined by carrying out the same assay except that the wells were mannan-free. […]

human MASP-2, sequence (O00187 whole entry, looked up): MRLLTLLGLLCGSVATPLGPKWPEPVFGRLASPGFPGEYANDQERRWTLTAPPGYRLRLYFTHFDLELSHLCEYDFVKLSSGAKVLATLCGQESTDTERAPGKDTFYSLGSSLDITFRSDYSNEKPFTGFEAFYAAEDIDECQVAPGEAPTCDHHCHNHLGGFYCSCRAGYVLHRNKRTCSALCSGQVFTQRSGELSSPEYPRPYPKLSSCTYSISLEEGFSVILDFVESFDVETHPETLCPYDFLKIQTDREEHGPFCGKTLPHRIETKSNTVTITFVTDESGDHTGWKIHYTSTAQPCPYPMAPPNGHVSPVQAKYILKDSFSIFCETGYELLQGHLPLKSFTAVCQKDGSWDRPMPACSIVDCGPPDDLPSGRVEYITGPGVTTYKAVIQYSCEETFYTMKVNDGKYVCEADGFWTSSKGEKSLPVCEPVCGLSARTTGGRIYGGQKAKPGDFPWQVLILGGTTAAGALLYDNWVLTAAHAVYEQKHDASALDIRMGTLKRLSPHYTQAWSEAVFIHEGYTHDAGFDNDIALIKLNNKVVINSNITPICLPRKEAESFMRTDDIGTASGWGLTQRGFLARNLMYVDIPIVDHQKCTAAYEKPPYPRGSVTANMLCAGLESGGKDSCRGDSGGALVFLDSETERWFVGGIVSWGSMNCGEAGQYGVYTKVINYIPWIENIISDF

Molecule | IC50
17D20mc: mother scFv clone, fully human MASP-2 antibody from phage display (TABLE 8, "all in scFv format") (protein) scFv: QVTLKESGPVLVKPTETLTLTCTVSGFSLSRGKMGVSWIRQPPGKALEWLAHIFSSDEKSYRTSLKSRLTISKDTSKNQVVLTMTNMDPVDTATYYCARIRAGGIDYWGQGTLVTVSSKLSGSASAPKLEEGEFSEARVQPVLTQPPSVSVSPGQTASITCSGDKLGDKFAYWYQQKPGHSPVLVIYQDNKRPSGIPGRFSGSNSGNTATLTISGTQAMDEADYYCQAWDSSTAVFGTGTKVTVLAAAGSEQKLISEEDLNSHHHHHH | 38 nM
17N16mc: mother scFv clone, fully human MASP-2 antibody from phage display (TABLE 8, "all in scFv format") (protein) scFv: QVQLQQSGPGLVKPSQTLSLTCAISGDSVSSTSAAWNWIRQSPSRGLEWLGRTYYRSKWYNDYAVSVKSRITINPDTSKNQFSLQLNSVTPEDTAVYYCARDPFGVPFDIWGQGTMVTVSSKLSGSASAPKLEEGEFSEARVSYVLTQPPSVSVAPGQTARITCGGNNIGSKNVHWYQQKPGQAPVLVVYDDSDRPSGIPERFSGSNSGNTATLTVSRVEAGDEADYYCQVWDTTTDHVVFGGGTKLTVLAAAGSEQKLISEEDLNSHHHHHH | 68 nM
